# Reference: patent US8187838B2, “β-Galactoside-α2, 6-sialyltransferase, a gene encoding thereof, and a method for producing thereof” (Japan Tobacco Inc., priority 2006, dated 2012)
# Entries after “also recorded” stand apart in the source; their conditions may differ.
# B1: ISH224-N1C0 (protein, listed as Photobacterium sp.)
# chain: MSEENTQSIIKNDINKTIIDEEYVNLEPINQSNISFTKHSWVQTCGTQQLLTEQNKESISLSVVAPRLDDDEKYCFDFNGVSNKGEKYITKVTLNVVAPSLEVYVDHASLPTLQQLMDIIKSEEENPTAQRYIAWGRIVPTDEQMKELNITSFALINNHTPADLVQEIVKQAQTKHRLNVKLSSNTAHSFDNLVPILKELNSFNNVTVTNIDLYDDGSAEYVNLYNWRDTLNKTDNLKIGKDYLEDVINGINEDTSNTGTSSVYNWQKLYPANYHFLRKDYLTLEPSLHELRDYIGDSLKQMQWDGFKKFNSKQQELFLSIVNFDKQKLQNEYNSSNLPNFVFTGTTVWAGNHEREYYAKQQINVINNAINESSPHYLGNSYDLFFKGHPGGGIINTLIMQNYPSMVDIPSKISFEVLMMTDMLPDAVAGIASSLYFTIPAEKIKFIVFTSTETITDRETALRSPLVQVMIKLGIVKEENVLFWADLPNCETGVCIAV
# Legend:
# Assay type in all cases: biochemical
# [1] = Sialyltransferase activity of samples after each purification step; settings: for Specific activity (U/mg) / Total activity (U): Bis-Tris pH 6, 5 minutes, 25° C.
# Procedure: (§1) Sialyltransferase activity was measured as described in J. Biochem., 120, 104-110 (1996) (which is hereby incorporated by reference in its entirety). More specifically, the enzymatic reaction was accomplished by using CMP-NeuAc (70 nmol, containing about 20,000 cpm CMP-NeuAc in which NeuAc was labeled with ^14C; NeuAc represents N-acetylneuraminic acid) as a glycosyl donor substrate, lactose (1.25 μmol) as a glycosyl acceptor substrate, NaCl added to give a concentration of 0.5 M, and the enzyme-containing reaction solution (30 μl) prepared as described above. The enzymatic reaction was carried out at 25° C. for about 10 to 180 minutes. After completion of the reaction, 1.97 ml of 5 mM phosphate buffer (pH 6.8) was added to the reaction solution, which was then applied to a Dowex 1×8 (PO4^3− form, 0.2×2 cm, BIO-RAD) column. The radioactivity was measured for the reaction product, i.e., sialyllactose contained in the eluate (0 to 2 ml) from this column to calculate the enzyme activity. One enzyme unit (1 U) is defined as the amount of enzyme required to transfer 1 micromole of sialic acid per minute.
# (§2) The enzyme activity was measured by the method reported in J. Biochem. 120, 104-110 (1996), in the same manner as described in Example 1 under conditions as indicated in the footnote of Table 3-1. For protein quantification, a Coomassie Protein Assay Reagent (PIERCE) was used according to the instruction manual attached thereto. One enzyme unit (1U) was defined as the amount of enzyme required to transfer 1 micromole of sialic acid per minute.
# Reaction time: 5 minutes Reaction temperature: 25° C.
# as §2, with “3-2.” for “3-1.”
# (§3) Reaction Conditions Reaction composition:
# Reaction time: 5 minutes Reaction temperature: 30° C.
# [2] = Sialyltransferase activity in homogenate of E. coli carrying the JT-ISH-224 gene clones (14C-NeuAc transfer to lactose)
# Procedure: as §1
# An induction experiment of protein expression was performed on the five clones obtained in (3) above (i.e., ISH224-N0C0/pTrc, ISH224-N1C0/pTrc, ISH224-N2C0/pTrc, ISH224-N3C0/pTrc and ISH224-N3.1C0/pTrc). A single colony of E. coli TB1 having the expression vector pTrc99A carrying each clone was inoculated into LB medium (6 ml) containing an antibiotic, ampicillin (final concentration 100 μg/mL), and pre-cultured at 30° C. to about A600=0.5, followed by addition of IPTG (isopropyl-β-D(−)-thiogalactopyranoside, Wako Pure Chemical Industries, Ltd., Japan) at a final concentration of 1 mM. After culturing with shaking at 30° C. for an additional 4 hours, the cells in 4 ml culture solution were collected by centrifugation. These cells were suspended in 200 μl of 20 mM Bis-Tris buffer (pH 7.0) containing 0.336% Triton® X-100 and 0.5 M sodium chloride, and ultrasonically homogenized under ice cooling. The resulting homogenate was defined as a crude enzyme solution, diluted 200-fold with 20 mM cacodylate buffer (pH 5.0) containing 0.336% Triton® X-100, and then provided for activity measurement. The reaction was carried out in duplicate. The reaction conditions are as indicated in the footnotes of Tables 1-1 and 1-2.
# as §3
# Reaction time: 2 minutes Reaction temperature: 30° C.
# asialofetuin = assay: Sialic acid transfer to glycoprotein acceptor; settings: 25° C., 2 hours
# Procedure: As a glycosyl acceptor substrate, asialofetuin was used. Asialofetuin (2 mg) was dissolved in 1 ml of 20 mM Bis-Tris buffer (pH 6.0) and used as a glycosyl acceptor substrate solution. As a glycosyl donor substrate, CMP-NeuAc was used. The glycosyl acceptor substrate solution (40 μl), the glycosyl donor substrate (5 μl) and either of the enzyme solutions (5 μl, 10 mU each) were mixed and incubated at 25° C. for 2 hours to cause sialic acid transfer reaction. After completion of the reaction, the reaction solution was gel-filtered by being applied to a SEPHADEX® G-50 Superfine (0.8×18.0 cm) equilibrated with 0.1 M sodium chloride. A glycoprotein-containing eluate fraction (2-4 ml fraction) from gel filtration was collected and measured for its radioactivity using a liquid scintillation counter to quantify sialic acid transferred to the glycosyl acceptor substrate.
# [3] = Optimum pH, temperature and salt concentration for enzyme activity
# Procedure: The purified enzyme prepared in Example 4-1 was used to examine the optimum pH, optimum temperature and optimum salt concentration for JT-ISH-224-derived recombinant β-galactoside-α2,6-sialyltransferase N1C0.
# Acetate buffer (pH 4.0, pH 4.5 and pH 5.0), cacodylate buffer (pH 5.0, pH 5.5, pH 6.0, pH 6.5 and pH 7.0), phosphate buffer (pH 7.0, pH 7.5 and pH 8.0) and TAPS buffer (pH 8.0, pH 8.5 and pH 9.0) were prepared and used for enzyme activity measurement at 25° C. at various pH values.
# The enzyme activity was measured at an interval of 5° C. starting from 10° C. up to 50° C. using cacodylate buffer (pH 5.0).
# The enzyme activity was measured at 30° C. using cacodylate buffer (pH 5.0) by adjusting the NaCl concentration in the reaction solution to 0 M, 0.1 M, 0.25 M, 0.5 M, 0.75 M, 1.0 M, 1.5 M or 2.0 M.
# [4] = after MONO Q (purified fraction)
molecule,measurement,setting,value
B1,Specific activity (U/mg),[1]; Crude enzyme solution,12.0 U/mg
same,Total activity (U),[1]; Crude enzyme solution,13167 U
same,Specific activity (U/mg),[1]; after Hydroxyapatite,68.3 U/mg
same,Total activity (U),[1]; after Hydroxyapatite,9448 U
same,Specific activity (U/mg),[1]; [4],113 U/mg
same,Total activity (U),[1]; [4],2720 U
same,Specific activity (U/mg),[1]; after Q SEPHAROSE,31.8 U/mg
same,Total activity (U),[1]; after Q SEPHAROSE,11794 U
same,"fold higher specific activity than Pasteurella multocida-derived β-galactoside-α2,3-sialyltransferase (60 U/mg)",[1]; purified fraction,about 1.9 fold
same,"fold higher specific activity than β-galactoside-α2,6-sialyltransferase derived from Photobacterium damselae strain JT0160 (5.5 U/mg)",[1]; purified fraction,about 21 fold
same,Radioactivity (cpm) Round 1,"[2]; crude enzyme solution diluted 200-fold, lactose, 14C-CMP-sialic acid, 2 minutes, 30° C., Round 1",1552 cpm
same,Radioactivity (cpm) Round 2,"[2]; crude enzyme solution diluted 200-fold, lactose, 14C-CMP-sialic acid, 2 minutes, 30° C., Round 2",1711 cpm
same,Radioactivity (cpm) Average,"[2]; crude enzyme solution diluted 200-fold, lactose, 14C-CMP-sialic acid, 2 minutes, 30° C., average of duplicate",1631.5 cpm
same,sialyltransferase activity of the expressed clone (in words),"[2]; crude enzyme solution from E. coli TB1, listed as ISH224-N1C0/pTrc",expressed sialyltransferase; also recorded: retained the activity
same,Radioactivity (cpm),"asialofetuin; 10 mU enzyme, glycoprotein fraction after gel filtration",3051 cpm
same,sialic acid transfer to asialofetuin (in words),asialofetuin,higher efficiency of sialic acid transfer
same,pH of maximum enzyme activity (optimum pH),"[3]; 25° C., acetate, cacodylate, phosphate, TAPS buffers pH 4.0-9.0",5.0
same,temperature of maximum enzyme activity (optimum temperature),"[3]; cacodylate buffer (pH 5.0), 10° C. to 50° C.",30 °C
